In this test the target is T1, Ebola VP40 (1-326) (Ebola virus (EBOV), UniProt Q05128 1-326).
T1 sequence: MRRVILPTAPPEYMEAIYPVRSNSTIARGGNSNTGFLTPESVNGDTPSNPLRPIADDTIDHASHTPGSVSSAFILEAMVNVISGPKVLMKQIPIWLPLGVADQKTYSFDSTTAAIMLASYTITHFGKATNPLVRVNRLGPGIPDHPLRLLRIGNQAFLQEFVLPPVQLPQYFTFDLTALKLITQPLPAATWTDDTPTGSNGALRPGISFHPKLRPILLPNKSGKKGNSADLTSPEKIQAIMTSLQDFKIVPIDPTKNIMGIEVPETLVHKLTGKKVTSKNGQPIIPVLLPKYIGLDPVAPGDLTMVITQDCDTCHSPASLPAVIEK
Kind of test: co-immunoprecipitation with anti-Myc antibody from 293T lysates.

B1: TSG101 1-140 truncated mutant, C-terminally tagged with a Myc epitope (other)
chain: MAVSESQLKKMVSKYKYRDLTVRETVNVITLYKDLKPVLDSYVFNDGSSRELMNLTGTIPVPYRGNTYNIPICLWLLDTYPYNPPICFVKPTSSMTIKTGKHVDANGKIYLPYLHEWKHPQSDLLGLIQVMIVVFGDEPP
notes: Expressed in 293T cells
In the case of B1, the binding result was “no binding”.

For the origin of these results see US20080187528A1 (FUNCTIONAL GENETICS, published 2008).
